From patent US20240301039A1 (NEW YORK UNIVERSITY IN ABU DHABI, published 2024) come the findings set out here.

Experiment [1] deals with T1, SARS-CoV-2 C14S,C23S,C73S NSP9 (triSer-NSP9) (SARS-CoV-2, UniProt P0DTC1 4141-4253).
T1 construct: also called NSP (dissolved in ammonium acetate); INS (dissolved in DMSO and diluted in PBS)
T1 chain: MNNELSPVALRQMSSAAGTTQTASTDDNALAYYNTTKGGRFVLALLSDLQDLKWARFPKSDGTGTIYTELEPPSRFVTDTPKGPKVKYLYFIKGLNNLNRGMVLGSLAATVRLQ
In words: ELISA signal on INS over uncoated blocked well. (In general: An ELISA detects its analyte on a solid surface through an enzyme-linked reagent.)

Experiment [2] addresses T1, SARS-CoV-2 C14S,C23S,C73S NSP9 …. In words: ELISA signal on NSP over uncoated blocked well.
Experiment [3] deals with T2, SARS-CoV-2 C14S,C23S,C73S NSP9 (triSer-Nsp9) (SARS-CoV-2, UniProt P0DTC1 4141-4253).
T2 construct: also called NSP (dissolved in ammonium acetate); INS (dissolved in DMSO/PBS)
T2 chain: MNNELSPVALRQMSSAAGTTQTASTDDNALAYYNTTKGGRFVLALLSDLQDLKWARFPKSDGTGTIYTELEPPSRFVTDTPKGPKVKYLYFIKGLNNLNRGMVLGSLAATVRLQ
In words: ELISA signal on INS over uncoated blocked blank.

In experiment [4] the target is T2, SARS-CoV-2 C14S,C23S,C73S NSP9 …. The experiment in a line: ELISA signal on NSP over uncoated blocked blank.
For experiment [5] the target is unchanged. The experiment in a line: ELISA, periplasmic extract; Nsp9 in DMSO/PBS (INS) coated.
For experiment [6] the target is unchanged. The experiment in a line: ELISA, periplasmic extract; Nsp9 in ammonium acetate (NSP) coated.

B1: 2INS64 (VHH)
VHH: QVQLQESGGGLVQVGGSLRLSCAASGSILSINAMGWYRQAPGKQRELVAAITSGGSTNYADSVKGRFTISRDNAKNMLYLQMNSLKPEDTAVYYCHVVTGWGPLDWGQGTQVTVSS
With B1, the INS/control in experiment [1] came out at 26.7. This molecule also returned an NSP/control in experiment [2] of 45.2.

B2: 2NSP90 (VHH)
VHH: QVQLQESGGGLVQTGDSLRLSCAVSGRTFSTYSVGWFRQAPGKEREFVALRWSGGTTYYADSVVGRFTVSRDNAKNTVYLEMNSLKPEDTAVYYCAADRGSGSYSPTYRWDYWGQGTQVTVSS
Molecule B2 showed an INS/control in experiment [3] of 21. The NSP/control in experiment [4] was 50.8. For the same molecule, the “ELISA INS” value in experiment [5] turned out to be 1.98. In experiment [6], the “ELISA NSP” value stood at 4.78.

B3: 2INS27 (VHH)
VHH: QVQLQESGGGLVQAGGSLRLSCATSGSIFSSAVMGWYRQAPGNERELVALIGSSDTTDYSNSVKGRFTISRDNAKNTAYLRMNSLKPEDTAVYYCTAVKYGLGGFVYWGQGTQVTVSS
Molecule B3 came in with an INS/control in experiment [3] of 31.3. The molecule also showed an NSP/control in experiment [4] of 28.9. In addition, the “ELISA INS” value in experiment [5] was 3. Moreover, the “ELISA NSP” value in experiment [6] was 2.77.

B4: 2NSP23 (VHH)
VHH: QVQLQESGGGLVQPGGSLRLSCAASGLAFSMYTMGWFRQAPGKEREFVAMIISSGDSTDYADSVKGRFTISRDNGKNTVYLQMDSLKPEDTAVYYCAAPKFRYYFSTSPGDFDSWGQGTQVTVSS
With B4, in experiment [3], the INS/control was 16.8. Besides, in experiment [4], the NSP/control was 41.8. Further, the “ELISA INS” value in experiment [5] worked out at 1.72. Also, the “ELISA NSP” value in experiment [6] was determined as 4.28.

B5: 3NSP78 (VHH)
VHH: QVQLQESGGGLVQAGGSLRLSCAASGRAFSSYVMGWFRQAPGKEREFVAAIHWTGAATVYVDSVKGRFAISRHNAKNTVYLEMNSLKPEDTAVYYCAADPSGSYWPPKRYDYWGQGTQVTVSS
For the molecule B5, in experiment [1], the INS/control was 28.6. This molecule displayed an NSP/control in experiment [2] of 47.2.

B6: 2INS45 (VHH)
VHH: QVQLQESGGGLVQAGGSLRLSCAASGFTLSSNDMGWYRQAPGKQRELVATITSGLSTNYADSVKGRFTISRDNAKNTVFLQMNSLKIEDTAVYYCEVERGWGPPRDYWGHGTQVTVSS
For B6, the INS/control in experiment [1] was found to be 26.9. Moreover, in experiment [2], the NSP/control stood at 45.

B7: 2INS61 (VHH)
VHH: QVQLQESGGGLVQAGGSLRLSCAASGSIFSINTMGWYRQAPGKQRELVAAITSGGSTNYADSVKGRFTISRDNAKNTVHLQMNSLKPEDTAVYYCNVVEGWGPPVGYWGQGTQVTVSS
In turn, B7 came in with an INS/control in experiment [3] of 2.75. In experiment [4], this molecule gave an NSP/control of 8.02. For the same molecule, in experiment [5], the “ELISA INS” value worked out at 1.84. Besides, in experiment [6], the “ELISA NSP” value worked out at 5.36.

B8: 3INS39 (VHH)
VHH: QVQLQESGGGLVQAGGSLRVSCEVSGIMFGINTMGWYRQAPGKQRELVAHITSSGSTNYADSVKGRFTISRDNAKKTVYLQMNSLKPEDTAVYYCNVVAGWGPPPGYWGQGTQVTVSS
For the molecule B8, the INS/control in experiment [3] was found to be 2.7. This molecule gave an NSP/control in experiment [4] of 4.42. Further, in experiment [5], the “ELISA INS” value came out at 2.49. The “ELISA NSP” value in experiment [6] is 4.07.

B9: 3NSP29 (VHH)
VHH: QVQLQESGGGLVQAGGSLRLSCAASGRTFSRYAMGWFRQAPGKERESVAAINWSGTSIFYANSVEGRFTISRDNAKNTVYLQLNSLKPEDTAVYYCGVVLNGMPYWGRGTQVTVSS
In experiment [1], B9 displayed an INS/control of 1.84. In experiment [2], the NSP/control is 3.85.

B10: 2INS69 (VHH)
VHH: QVQLQESGGGLVRAGDSLRLSCAVSGRTFSSVAMGWFRQAPGKEREFVAFISGSTGSVTYYADSVKGRFAISRDNAKNTVYLQMNSLKPEDTAVYDCAAKFTGTFNYQGLYDYWGQGTQVTVSS
Take B10: in experiment [1], the INS/control came to 14.1. Also, the NSP/control in experiment [2] came to 13.8.

B11: 3NSP52 (VHH)
VHH: QVQLQESGGGLVQPEGSLRLSCAASGLTFDSYAIGWFRQAPGKEREFVAASIWSGDSGHYTGSVKGRFTISRDNAKNTVDLQMNSLKPEDTAVYYCAASASFLHSANYHMRAKWGYWGQGTQVTVSS
Turning to B11, the INS/control in experiment [3] is 23.6. In experiment [4], this molecule registered an NSP/control of 34.2. In addition, the “ELISA INS” value in experiment [5] amounted to 2. Besides, the “ELISA NSP” value in experiment [6] stood at 2.91.

B12: 3NSP56 (VHH)
VHH: QVQLQESGGGLVQAGGSLRLSCAASGRTFSRYAMGWFRQAPGKERESVAAINWSGTSIFYANSVEGRFTISRDNAKNTVYLQLNSLKPEDTAVYYCAADLVRNYRLGWGDGVYDHYGQGTQVTVSS
Consider B12, for which, in experiment [1], the INS/control came out at 2.61. Further, the NSP/control in experiment [2] is 5.47.
